Where two headings read alike, the source gives them in different places.
Assays:
[1] = stability in undiluted rat plasma at 37° C. by ELISA; format: in vitro ADME
Description: (§1) Examples of this approach are the replacement of arginine (R) with citrulline, and phenylalanine (F) with 3-(1-naphthyl)alanine. We have also cyclized side-chain to side-chain (for example, i, i+4 residues) to form ring structures which also increase overall plasma stability (See, e.g., FIG. 3 and FIG. 13).

[2] = rat, in vivo, 2 mg/kg
Description: Rat pharmacokinetic studies. […] There were three rats per group (n=3), each weighing 250-325 g. Each group received either a 2 mg/kg intravenous or subcutaneous discrete administration. The approximate dose volume was 0.3 mL per rat. Approximately 0.25 mL of whole blood was taken per time point at the following post-dose collection times for the intravenous groups (in hours): 0.083, 0.25, 0.5, 1, 2, 4, 6, 8, 24, 48, 72, 96 and the following time points for the subcutaneous groups (in hours): 0.25, 0.5, 1, 2, 4, 6, 8, 24, 48, 72, 96. Whole blood samples were collected in microtainer vials containing EDTA as anticoagulant and were kept on wet ice until processed for plasma. The plasma was obtained by centrifuging the whole blood for approximately 5 min at 11,500 rpm. Plasma was transferred to new tubes and stored frozen at approximately −70° C. until quantitative analysis. […] The individual sample concentrations for each time point were averaged (n=3) within a given dose group using Excel 2000 software. The averaged plasma concentration-time data were analyzed by noncompartmental methods using WinNonlin v.3.3 software. Nominal sample times were used in the pharmacokinetic analysis. The area under the concentration-time curve was calculated using the linear/log trapezoidal method to determine exposure.

[3] = stability in undiluted Cynomolgus plasma at 37° C. by ELISA; format: in vitro ADME; conditions: cynomolgus monkey
Description: as §1

[4] = stability in undiluted human plasma at 37° C. by ELISA; format: in vitro ADME
Description: as §1

**Q.** Which “t1/2 in rat plasma” value [1] does the source give for “Ac-WVTH[Cit]LAGLLS[Cit]SGGVV[hArg]K(20 KPEGald)NFVPTDVGP[1-Nal]AF-NH2 (WVTHXLAGLLSXSGGVVXKNFVPTDVGPXAF; not fully specified; N-acetyl, C-amide, 20 kDa PEG, Cit, hArg, 1-Nal; CGRP peptide; MOD_RES (1)..(1): …ON; MISC_FEATURE (5)..(5): xaa=citrulline; MISC_FEATURE (12)..(12): xaa=citrulline; MISC_FEATURE (18)..(18): xaa=homoarginine; MISC_FEATURE (19)..(19): PEGylated; MISC_FEATURE (29)..(29): xaa=3-(1-naphthyl)alanine; MOD_RES (31)..(31): AMI) [SEQ ID NO: 173]” here?
**A.** 8 to 9 h

**Q.** And the AUC0-inf ([2]; iv)?
**A.** 80.996 µg·h/mL

**Q.** And the AUC0-t ([2]; iv)?
**A.** 80.44 µg·h/mL

**Q.** And the MRT ([2]; iv)?
**A.** 4.97 h

**Q.** And the AUC0-t ([2]; sc)?
**A.** 4.385 µg·h/mL

**Q.** And the F % ([2]; sc)?
**A.** 5%

**Q.** And the “t1/2 in Cynomolgus plasma” value [3]?
**A.** >24 h

**Q.** And the “t1/2 in human plasma” value [4]?
**A.** >24 h
